From patent publication US20080207449A1 (CROPDESIGN N V, published 2008)

B1: pGBTE2Fa226-356: GAL4 DNA-binding domain fusion of AtE2Fa amino acids 226-356 (other)
chain: MKLLSSIEQACDICRLKKLKCSKEKPKCAKCLKNNWECRYSPKTKRSPLTRAHLTEVESRLERLEQLFLLIFPREDLDMILKMDSLQDIKALLTGLFVQDNVNKDAVTDRLASVETDMPLTLRQHRISATSSSEESSNKGQRQLTVSNRILWKGVDACPGDEDADVSVLQLQAEIENLALEEQALDNQIRQTEERLRDLSENEKNQKWLFVTEEDIKSLPGFQNQTLIAVKAPHGTTLEVPDPDEAADHPQRRYRIILRSTMGPIDVYLVSEFEGKFE
notes: also called E2F5 dimerisation domain; E2Fa (=E2F5) dimerization domain
B2: GAL4 transactivation domain fusion of AtDPb 1-385 (prey in pAD-GAL424) (other, not shown: large carriers)
chain: MTTTGSNSNHNHHESNNNNNNPSTRSWGTAVSGQSVSTSGSMGSPSSRSEQTITVVTSTSDTTFQRLNNLDIQGDDAGSQGASGVKKKKRGQRAAGPDKTGRGLRQFSMKVCEKVESKGRTTYNEVADELVAEFALPNNDGTSPDQQQYDEKNIRRRVYDALNVLMAMDIISKDKKEIQWRGLPRTSLSDIEELKNERLSLRNRIEKKTAYSQELEEQYVGLQNLIQRNEHLYSSGNAPSGGVALPFILVQTRPHATVEVEISEDMQLVHFDFNSTPFELHDDNFVLKTMKFCDQPPQQPNGRNNSQLVCHNFTPENPNKGPSTGPTPQLDMYETHLQSQQHQQHSQLQIIPMPETNNVTSSADTAPVKSPSLPGIMNSSMKPEN
notes: also called full-length AtDPb prey
B3: GAL4 transactivation domain fusion of AtE2Fa 226-356 (prey of Table V) (other, not shown: large carriers)
chain: NRILWKGVDACPGDEDADVSVLQLQAEIENLALEEQALDNQIRQTEERLRDLSENEKNQKWLFVTEEDIKSLPGFQNQTLIAVKAPHGTTLEVPDPDEAADHPQRRYRIILRSTMGPIDVYLVSEFEGKFE
notes: its construction is not described
B4: pGBTE2Fb 1-127: GAL4 DNA-binding domain fusion of AtE2Fb amino acids 1-127 (other)
chain: MKLLSSIEQACDICRLKKLKCSKEKPKCAKCLKNNWECRYSPKTKRSPLTRAHLTEVESRLERLEQLFLLIFPREDLDMILKMDSLQDIKALLTGLFVQDNVNKDAVTDRLASVETDMPLTLRQHRISATSSSEESSNKGQRQLTVSMSEEVPQQFPSSKRQLHPSLSSMKPPLVAPGEYHRFDAAETRGGGAVADQVVSDAIVIKSTLKRKTDLVNQIVEVNELNTGVLQTPVSGKGGKAKKTSRSAKSNKSGTLASGSNAGSPGNNFAQAGT
B5: c-myc-tagged AtDPa 172-292, in vitro translated (other)
chain: EQKLISEEDLEQKLISEEDLSLESLMSRNQEMVVKTQGPAEGFTLPFILLETNPHAVVEIEISEDMQLVHLDFNSTPFSVHDDAYILKLMQEQKQEQNRVSSSSSTHHQSQHSSAHSSSSSCIASGTSGPVCWNSGSIDTR
notes: also called c-myc-AtDPa 172-292
B6: c-myc-tagged AtDPa 121-213, in vitro translated (other)
chain: EQKLISEEDLEQKLISEEDLIIARDKKEIRWKGLPITCKKDVEEVKMDRNKVMSSVQKKAAFLKELREKVSSLESLMSRNQEMVVKTQGPAEGFTLPFILLETNPHAVVEIEI
notes: also called c-myc-AtDPa 121-213; predicted dimerization domain of the AtDPa

Legend:
[1] = target: B2; assay: yeast two-hybrid, growth on His- minimal medium; legend: +, positive interaction
Experimental: (§1) Different combinations between bait (pGBTE2Fa226-356, pGBTE2Fb-Rb, or pGBTE2Fb 1-127, SEQ ID NO:207) and prey constructs were transformed into yeast cells and assayed for their ability to grow on His⁻ minimal media after 3 days of incubation at 30° C. Bait plasmids co-transformed with empty pAD-GAL424 and prey plasmids co-transformed with empty pGBT9 were assessed along as controls for the specificity of the interaction.
(§2) Different combinations between AtE2Fs bait and AtDPs prey constructs were tested for growth on His minimal media. −, no interaction; +, positive interaction; NT, not tested.

[2] = target: T1, GAL4 transactivation domain fusion of AtDPa 1-292 (prey in pAD-GAL424) (Arabidopsis thaliana, UniProt Q9FNY3 1-292); assay: as above
T1 construct: also called full-length AtDPa prey
T1 sequence: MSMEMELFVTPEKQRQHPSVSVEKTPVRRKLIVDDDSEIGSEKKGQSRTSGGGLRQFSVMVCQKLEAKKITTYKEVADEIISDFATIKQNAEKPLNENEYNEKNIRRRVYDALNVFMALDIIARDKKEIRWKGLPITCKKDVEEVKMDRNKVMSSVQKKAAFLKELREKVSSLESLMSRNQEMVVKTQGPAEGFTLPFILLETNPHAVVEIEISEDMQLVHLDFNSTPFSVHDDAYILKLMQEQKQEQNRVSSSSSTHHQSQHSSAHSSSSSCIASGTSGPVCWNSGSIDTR
Experimental: as §1, §2

[3] = target: T2, CCP16, two-hybrid prey clone E2F5BBC1 (Arabidopsis thaliana, UniProt Q9FNY3 1-292); assay: yeast two-hybrid library screen (GAL4, His prototrophy in HF7c); prey clone isolated with this bait
T2 construct: partial protein read from the clone; also called DPa; AtDPa
T2 sequence: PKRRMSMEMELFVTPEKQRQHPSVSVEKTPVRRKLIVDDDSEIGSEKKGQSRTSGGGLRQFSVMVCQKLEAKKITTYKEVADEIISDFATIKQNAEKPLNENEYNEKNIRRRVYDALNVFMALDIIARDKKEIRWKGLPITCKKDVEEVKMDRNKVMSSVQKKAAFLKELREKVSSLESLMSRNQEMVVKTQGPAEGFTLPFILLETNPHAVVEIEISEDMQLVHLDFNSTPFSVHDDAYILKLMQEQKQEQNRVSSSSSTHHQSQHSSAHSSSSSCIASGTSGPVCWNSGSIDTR
Experimental: For library screening, vectors and strains (HF7c) were provided with the Matchmaker two-hybrid system (Clontech). The dimerization and DNA-binding domains of the AtE2Fa (amino acids 226-356; SEQ ID NO:205) were amplified by polymerase chain reaction (PCR) and subcloned in-frame with the GAL4 DNA-binding domain of pGBT9 (Clontech) to create the bait plasmid pGBTE2Fa226-356. Screens were performed as described previously (De Veylder et al. 1999; Planta 208, 453-462). A second library screening was performed with the AtE2Fb construct (pGBTE2Fb-Rb) lacking the Rb-binding domain (amino acids 1-385; SEQ ID-NO:206). Plasmids from interacting clones were isolated and sequenced.

[4] = target: T3, pGBTE2Fb-Rb: GAL4 DNA-binding domain fusion of AtE2Fb amino acids 1-385 (lacking the Rb-binding domain) (Arabidopsis); assay: yeast two-hybrid, growth on His- minimal medium; legend: +, positive interaction
T3 construct: also called E2F3 N-terminal; E2Fb (=E2F3) N-terminal domain
Experimental: as §1, §2

[5] = target: T4, pGBT DPb 1-385: GAL4 DNA-binding domain fusion of AtDPb 1-385 (Arabidopsis thaliana); assay: yeast two-hybrid, growth on His- minimal medium; legend: -, no interaction
T4 construct: its construction is not described

[6] = target: T5, pGBT DPa 1-292: GAL4 DNA-binding domain fusion of AtDPa 1-292 (Arabidopsis thaliana); assay: as above
T5 construct: its construction is not described

[7] = target: T3, pGBTE2Fb-Rb: GAL4 DNA-binding domain …; assay: as above
[8] = target: B1; assay: as above
[9] = target: B4; assay: as above
[10] = target: T6, empty pGBT9 (GAL4 DNA-binding domain alone) (UniProt P04386 1-147); assay: yeast two-hybrid, growth on His- minimal medium; empty bait vector control; legend: -, no interaction
T6 construct: empty bait vector, control for specificity; also called pBGT9
Experimental: as §1, §2

[11] = target: B2; assay: yeast two-hybrid, growth on His- minimal medium; legend: -, no interaction
[12] = target: T1, GAL4 transactivation domain fusion of …; assay: as above
[13] = target: T7, HA-tagged wild-type AtE2Fb, in vitro translated (Arabidopsis, UniProt Q9FV71 1-469); assay: co-immunoprecipitation (anti-HA and anti-c-myc) of in vitro co-translated tagged proteins, SDS-PAGE autoradiography
T7 construct: wild-type (whole) protein; also called HA-AtE2Fb; E2F3
Experimental: (§3) In vitro transcription and translation experiments were performed using the TNT T7-coupled wheat germ extract kit (Promega) primed with appropriate plasmids for 90 min at 30° C. For immunoprecipitation, 10 μl of the total in vitro translated extract (50 μl) was diluted at 1:5 in Nonidet P40 buffer (50 mM Tris, pH 7.4, 150 mM NaCl, 1% Nonidet P40, 1 mM phenylmethylsulfonyl fluoride, 10 μg/ml leupeptin/aprotinin/pepstatin) and incubated for 2 h at 4° C. with anti-c-myc (9E10; BabCo) or anti-HA (16B12; BabCo) antibodies. Protein-A-Sepharose (40 μl 25% (v/v)) was added and incubated for 1 h at 4° C., then the beads were washed four times with Nonidet P40 buffer. Immune complexes were eluted with 10 μl […] sodium dodecyl sulfate (SDS) sample buffer and analyzed by 10% or 15% SDS-PAGE and by autoradiography.
(§4) Similar results were obtained by two-hybrid analysis (see Table 5 of Example 12). To test whether the structural requirements for heterodimerization of the AtDPs were similar to those of their animal homologs, several deletion mutants of AtDPa and AtDPb were constructed (for a schematic illustration, see FIGS. 52 and 53), tagged with the c-myc epitope (FIGS. 54 and 55, panels A). The interactions between the mutant AtDPs and AtE2Fb were analyzed in immunoprecipitation experiments with the specific anti-HA or anti-c-myc antibodies ([…], panels B and C, respectively). […]

[14] = target: T7, HA-tagged wild-type AtE2Fb, in vitro …; assay: co-immunoprecipitation (anti-HA) of in vitro co-translated tagged proteins, SDS-PAGE autoradiography
Experimental: as §3, §4

T7 sequence (Q9FV71 1-469, tags or fused parts left off): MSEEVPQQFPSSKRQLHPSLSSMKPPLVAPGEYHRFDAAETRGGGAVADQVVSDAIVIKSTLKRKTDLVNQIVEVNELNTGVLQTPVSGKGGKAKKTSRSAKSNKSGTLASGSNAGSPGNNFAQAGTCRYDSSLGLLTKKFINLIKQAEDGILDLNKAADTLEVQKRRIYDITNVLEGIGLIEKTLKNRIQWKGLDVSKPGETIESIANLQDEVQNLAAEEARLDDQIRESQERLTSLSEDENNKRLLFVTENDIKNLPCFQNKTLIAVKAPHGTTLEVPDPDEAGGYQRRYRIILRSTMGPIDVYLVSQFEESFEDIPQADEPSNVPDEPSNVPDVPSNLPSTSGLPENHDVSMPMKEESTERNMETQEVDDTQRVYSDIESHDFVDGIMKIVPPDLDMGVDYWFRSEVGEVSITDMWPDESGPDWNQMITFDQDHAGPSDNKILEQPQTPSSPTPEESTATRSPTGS

Question: Does B1 bind [1]?
Answer: Result: binds

Question: Does B1 bind [2]?
Answer: Result: binds

Question: Does B1 bind [3]?
Answer: Result: binds

Question: Does B2 bind [4]?
Answer: Result: binds

Question: Does B2 bind [5]?
Answer: Result: no binding

Question: Does B2 bind [6]?
Answer: Result: no binding

Question: Does B3 bind [7]?
Answer: Result: no binding

Question: Does B3 bind [8]?
Answer: Result: no binding

Question: Does B3 bind [9]?
Answer: Result: no binding

Question: Does B3 bind [10]?
Answer: Result: no binding

Question: What does the source list for B4?
Answer: binding result [11]: no binding; binding result [12]: no binding

Question: Does B5 bind [13]?
Answer: Result: no binding

Question: Does B6 bind [14]?
Answer: Result: no binding
